system: Escherichia coli TOP10; experiment: shrunken log2 fold change of peptide-encoding DNA abundance (4.5 h post-induction vs induction); higher = less antimicrobial activity (less host growth inhibition); conditions: time post-induction: 4.5 h; library: site-saturation at positions 5, 18, 19, 20
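Also: peptides expressed intracellularly from a pBAD plasmid library in pooled LB shake-flask culture, induced with 0.3% L-arabinose, DNA abundance read by NGS, three biological replicates, DESeq2 with apeglm shrinkage.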

Sequence	shrunken log2 fold change
RRIRWRPPRLPRPRPRPWSWPRP	1.16
RRIRIRPPRLPRPRPRPFMMPRP	0.0298
RRIRPRPPRLPRPRPRPSPLPRP	0.0443
RRIRARPPRLPRPRPRPYIEPRP	-0.44
RRIRWRPPRLPRPRPRPCGAPRP	0.525
RRIRFRPPRLPRPRPRPTWDPRP	0.0928
RRIRIRPPRLPRPRPRPMRTPRP	0.0509
RRIRARPPRLPRPRPRPMYVPRP	-0.0341
RRIRQRPPRLPRPRPRPREQPRP	-0.00783
RRIRHRPPRLPRPRPRPNGRPRP	-9.3e-05
RRIRQRPPRLPRPRPRPVTEPRP	-0.35
RRIRVRPPRLPRPRPRPDRIPRP	-0.135
RRIRWRPPRLPRPRPRPPITPRP	-0.173
RRIRWRPPRLPRPRPRPQHTPRP	0.0837
RRIRPRPPRLPRPRPRPDERPRP	-0.0865
RRIRFRPPRLPRPRPRPWYLPRP	-0.549
RRIRQRPPRLPRPRPRPLMTPRP	0.0563
RRIRQRPPRLPRPRPRPQWDPRP	0.0263
RRIRFRPPRLPRPRPRPESIPRP	-0.126
RRIRLRPPRLPRPRPRPVIVPRP	-0.0265

Sequence	shrunken log2 fold change
RRIRTRPPRLPRPRPRPRMRPRP	0.753
RRIRIRPPRLPRPRPRPDVKPRP	-0.147
RRIRIRPPRLPRPRPRPIYTPRP	-0.728
RRIRYRPPRLPRPRPRPLWIPRP	-0.103
RRIRIRPPRLPRPRPRPRLRPRP	-0.0272
RRIRWRPPRLPRPRPRPKKNPRP	0.341
RRIRRRPPRLPRPRPRPHNHPRP	-0.237
RRIRIRPPRLPRPRPRPRDMPRP	-0.902
RRIRWRPPRLPRPRPRPILWPRP	0.117
RRIRFRPPRLPRPRPRPSVFPRP	-0.165
RRIRMRPPRLPRPRPRPFYQPRP	-0.297
RRIRYRPPRLPRPRPRPLDTPRP	-0.429
RRIRPRPPRLPRPRPRPCHDPRP	-0.097
RRIRERPPRLPRPRPRPTMTPRP	-0.389
RRIRIRPPRLPRPRPRPCTFPRP	-0.212
RRIRVRPPRLPRPRPRPWWAPRP	-0.0894
RRIRERPPRLPRPRPRPDHSPRP	-0.184
RRIRERPPRLPRPRPRPNGYPRP	-0.193
RRIRIRPPRLPRPRPRPDPAPRP	0.0747
RRIRTRPPRLPRPRPRPLQIPRP	4.62

Sequence	shrunken log2 fold change
RRIRFRPPRLPRPRPRPATFPRP	-0.207
RRIRQRPPRLPRPRPRPNPPPRP	0.0904
RRIRIRPPRLPRPRPRPQCKPRP	-0.532
RRIRERPPRLPRPRPRPFGHPRP	-0.224
RRIRIRPPRLPRPRPRPEQMPRP	0.224
RRIRCRPPRLPRPRPRPSRPPRP	0.245
RRIRHRPPRLPRPRPRPELYPRP	-0.215
RRIRPRPPRLPRPRPRPSKPPRP	0.0728
RRIRRRPPRLPRPRPRPDRLPRP	0.058
RRIRHRPPRLPRPRPRPDVCPRP	-0.258
RRIRVRPPRLPRPRPRPNTDPRP	-0.626
RRIRWRPPRLPRPRPRPEQTPRP	-0.0026
RRIRKRPPRLPRPRPRPVEDPRP	-0.000777
RRIRKRPPRLPRPRPRPLQRPRP	0.331
RRIRKRPPRLPRPRPRPIFHPRP	0.381
RRIRWRPPRLPRPRPRPSAHPRP	0.062
RRIRNRPPRLPRPRPRPRYVPRP	-0.265
RRIRVRPPRLPRPRPRPWCLPRP	-0.198
RRIRGRPPRLPRPRPRPNAWPRP	0.728
RRIRCRPPRLPRPRPRPGFGPRP	0.399
